Experimental data published in patent publication US20170130210.

Columns and labels:
[1] = molecular target: Pfk-I (DAS+4), N-terminal 6x-His-tagged Pfk-I with the modified DAS+4 tag at the C terminus (UniProt P0A796)
[2] = molecular target: Pfk-I (LAA), N-terminal 6x-His-tagged Pfk-I with the native ssrA tag (LAA) appended to the C terminus (UniProt P0A796)
[3] = molecular target: Pfk-I (untagged), N-terminal 6x-His-tagged phosphofructokinase-I without C-terminal degradation tag (UniProt P0A796)
Pfk-I (untagged), N-terminal 6x-His-tagged phosphofructokinase-I without C-terminal degradation tag, sequence (P0A796 whole entry): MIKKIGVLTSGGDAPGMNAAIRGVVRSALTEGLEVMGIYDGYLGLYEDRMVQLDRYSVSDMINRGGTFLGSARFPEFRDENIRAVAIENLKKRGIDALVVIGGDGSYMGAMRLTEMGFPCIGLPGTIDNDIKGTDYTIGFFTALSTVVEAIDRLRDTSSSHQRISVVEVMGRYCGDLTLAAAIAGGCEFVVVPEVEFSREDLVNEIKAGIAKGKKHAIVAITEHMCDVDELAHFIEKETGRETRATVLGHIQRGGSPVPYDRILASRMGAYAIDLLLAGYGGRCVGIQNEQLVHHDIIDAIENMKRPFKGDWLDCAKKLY

Pfk-I (LAA), N-terminal 6x-His-tagged Pfk-I with the native ssrA tag (LAA) appended to the C terminus, sequence (P0A796 other isoform, or with tags, fused parts or gaps): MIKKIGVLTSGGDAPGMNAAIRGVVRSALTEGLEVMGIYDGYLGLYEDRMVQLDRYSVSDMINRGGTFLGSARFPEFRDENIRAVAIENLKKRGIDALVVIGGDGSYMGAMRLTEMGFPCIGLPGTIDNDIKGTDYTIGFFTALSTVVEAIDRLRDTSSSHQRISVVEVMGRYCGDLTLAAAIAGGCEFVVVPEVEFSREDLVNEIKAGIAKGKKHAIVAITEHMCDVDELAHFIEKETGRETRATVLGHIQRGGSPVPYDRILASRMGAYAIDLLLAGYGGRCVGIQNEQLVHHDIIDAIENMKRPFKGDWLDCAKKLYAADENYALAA
Pfk-I (DAS+4), N-terminal 6x-His-tagged Pfk-I with the modified DAS+4 tag at the C terminus, sequence (P0A796 other isoform, or with tags, fused parts or gaps): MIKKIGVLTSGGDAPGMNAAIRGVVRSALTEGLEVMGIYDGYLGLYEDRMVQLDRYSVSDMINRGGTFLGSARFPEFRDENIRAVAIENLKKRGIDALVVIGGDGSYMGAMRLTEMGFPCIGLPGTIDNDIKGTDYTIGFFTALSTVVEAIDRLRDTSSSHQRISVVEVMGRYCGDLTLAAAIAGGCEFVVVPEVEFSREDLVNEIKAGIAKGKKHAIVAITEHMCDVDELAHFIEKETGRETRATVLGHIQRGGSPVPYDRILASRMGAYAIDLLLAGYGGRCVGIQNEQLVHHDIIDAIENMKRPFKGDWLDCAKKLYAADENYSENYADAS

## ClpXP protease (0.3 µM ClpX6 and 0.9 µM ClpP14)
[1]
  in vitro degradation by ClpXP with ATP, SDS-PAGE time course, no SspB: no significant degradation was observed over the 60 minute period
[2]
  in vitro degradation by ClpXP with ATP, SDS-PAGE time course: shows almost complete disappearance by 20 minutes
[3]
  in vitro degradation by ClpXP with ATP, SDS-PAGE time course: does not show significant degradation during the 60 minute incubation with ClpXP
